# The nanobody polyreactivity screen of Harvey et al. (2022)
# Test: yeast display, Sf9 membrane polyspecificity reagent, FACS + sequencing; frameworks hold sequencing errors
# Method in brief: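 After 36–48 hours of galactose induction, yeast (Saccharomyces cerevisiae BJ5465) displaying a synthetic nanobody library were stained at 4 °C for 1 hour with 10% biotinylated, detergent-solubilized Sf9 membrane reagent. Streptavidin microbeads enriched the stained cells before FACS sorting into low and high (top ~1%) gates on anti-HA and streptavidin fluorescence. Each clone's polyreactivity label reflects its gate of origin.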
row,Sequence,polyreactivity (PSR sort gate)
1,QVQLVESGGGLVQAGGSLRLSCAASGSTFISNAMGWYRQAPGKERELVAAITRRGGGTYYADSVKGRFTISRDNAMNTVYLQMNSLKPEDTAVYYCAARPWWRGYRFDYWGQGTQVTVSS,high polyreactivity
2,QVQLVESGGGLVQAGGSLRLSCAASGSTFISYAMGWSRQAPGKERELVAAISRNGGRTYYADSVKGRFTISRDNAKNTVYLQMNSLKPEDTAVYYCAAAYNSYRFDYWGQGTQVTVSS,high polyreactivity
3,QVQLVESGGGLVQAGGSLRLSCAASGSTFISYAMGWYRQAPGKEREWVAAISRRGDSTYYADSVKGRFTISRDNAKNTVYLQMKSLKPEDTAVYYCAADVSGDKGSIHMNYWGQGTQVTVSS,low polyreactivity
4,QVQLVESGGGLVQAGGSLRLSCAASGSTFITYAMGWYRQAPGKERELVAAIRFSGDTTYADSVKGRFTISRDNAKNTVNLQLNCLKPEDTAVYYCAVVLYRYDGRKYWRDYWGQGTQVTVSS,high polyreactivity
5,QVQLVESGGGLVQAGGSLRLSCAASGSTFIYNAMGWYRLAPGKEREFVAGITGSGGSTYYADSVKGRFTISRDNAKNTVYLQMNSLKPEDTAVNYCNADSPVVNYADLDYWGQGTQVSVSS,low polyreactivity
6,QVQLVESGGGLVQAGGSLRLSCAASGSTFIYYTMGWYRQAPGKERELVAAINGGGGSTYYADSVKGRFTISRDNAKNTVYLQMTSLKPEDTAVYYCATDPWHRAWGYGWGYNYWGQGTQVTVSS,low polyreactivity
7,QVQLVESGGGLVQAGGSLRLSCAASGSTFIYYTMVWYRQAPGKERELVAAIPSSGGSTYYADSVKGRFTISRDNAKNTVYLQMNSLKPEDNAVYYCAADGTYIKFAKLYRSYDYWGQVTQVTVSS,low polyreactivity
8,QVQLVESGGGLVQAGGSLRLSCAASGSTFKIYAMGWYRQAPGKERELVARITGRGGSTYYADSVKGRFTISRDNAKNTVYLQMNSLKPEDTAVYYCAREWYQYSPYHRFDYWGQGTQVTVSS,high polyreactivity
9,QVQLVESGGGLVQAGGSLRLSCAASGSTFKKYAMGWYRQAPGKERELVATISKNGGSTYYADSVNGRFTISRDNAKNTVYLQMNSLKPEDTAVYYCATRWWYYRTWYDYWGQGTQVTVSS,high polyreactivity
10,QVQLVESGGGLVQAGGSLRLSCAASGSTFKPNAMGWYRQAPGKERELVAAISGSGGSTYYADSVKGRFTISRDNAKNTVYLQMNSLKPEDTAVYYCAAYVYTIFSWYDYWGQGTQVTVSS,high polyreactivity
11,QVQLVESGGGLVQAGGSLRLSCAASGSTFKPYAMGWYRQAPGKERELVAAISKSGGSTRYADSVKGRFTISRDNAKNTVYLQMNSLKPEDTAVYYCAADYIYVKYEYWGQGTQVTVSS,high polyreactivity
12,QVQLVESGGGLVQAGGSLRLSCAASGSTFKPYAMGWYRQAPGKERELVAAISRGTRTYADSVKGRFTITRDNAKNTVYLQMNSLKPEDTAVYYCAAEWRWIFGYHYEYDYWGQGTQVTVSS,low polyreactivity
13,QVQLVESGGGLVQAGGSLRLSCAASGSTFKPYAMGWYRQAPGKERELVADISGRGGSTYYADSVKGRFTISRDNAKKTVYLQMNSLKPEDTAVFYCATYSSRQRKSSYYYWGQGTHVTVSS,high polyreactivity
14,QVQLVESGGGLVQAGGSLRLSCAASGSTFKRYAMGWYRQAPGKERELVAAISTRGSTYYADSVKGRFTISRDNAKNTVYFQMNSLKPEDTAVYYCIARQALVWKWYWYSPGYDYWGQGTQVTVSS,low polyreactivity
15,QVQLVESGGGLVQAGGSLRLSCAASGSTFKRYAMGWYRQAPGKEWELVAAISASGGSTSYADSVKGRFTISRDKAKNTVYLQMNSLIPEDTAVYYCARDRFRSRLDYWGQGTQVTVSS,high polyreactivity
16,QVQLVESGGGLVQAGGSLRLSCAASGSTFKSYTMGWYRQAPGKERELVAAISGSGGRTYYADSVKGRFTISRDNAKNTVYLQMNSLKPEDTAVYYCAATGPYGFYWGQGTQVTVSS,high polyreactivity
17,QVQLVESGGGLVQAGGSLRLSCAASGSTFKTYAMGWYRQAPGKEREFVASISGSGGSTRYADSVKGRFTISRDNAKNTVYLQMNSLKPEDTAVYYCAARLQKPTNGKGVYYWGQGTQVTVSS,high polyreactivity
18,QVQLVESGGGLVQAGGSLRLSCAASGSTFKVYAMGWYRQAPGKERELVATISKSGSTYADSVKGRFTISRDNAKNTVYLQMNCLKPEDTAVYYCAADLYTYPRTRRRAYGYWGQGTQVTVSS,high polyreactivity
19,QVQLVESGGGLVQAGGSLRLSCAASGSTFKWNAMGWYRQAPGKERELVAAINSGGSTYYADSVKGRFTISRDNAKNTVYLQMNSLKPEDTAVYYCAKKWAVRTPFRYGIRYDYWGQGTQVTVSS,low polyreactivity
20,QVQLVESGGGLVQAGGSLRLSCAASGSTFKWYAMGWYRQAPGKERELVAAINWSSGRTYYADSVKGRFTISRDNAKNTVYLQMNSLKPEDTAVYYCAAEAGYFSWRTMDYWGQGTQVTVSS,high polyreactivity
21,QVQLVESGGGLVQAGGSLRLSCAASGSTFKYYAMGWYRQAPGKERELVASISRGGSTNYADSVKGRFTISRDNAKNTVYLQMNSLKPEDTAVYYCAKRRAGTAYDYWGQGTQVTVSS,high polyreactivity
22,QVQLVESGGGLVQAGGSLRLSCAASGSTFLDNAMGWYIQAPGKERELVAAITQSGSSTYYPDSVKGRFTISRDTAKNTVYLQMNSLKPEATAVYYCAADVPNISFDYWGQGTQVTVSS,low polyreactivity

row,Sequence,polyreactivity (PSR sort gate)
1,QVQLVESGGGLVQAGGSLRLSCAASGSTFLDNAMGWYRQAPGKERELVAAISSDGSTYYANSVKGRFTISRDNAKNTVYIQMNSLKPEDTAVYYCAAEYRYYGFWYDYWGQGTQVTVSS,high polyreactivity
2,QVQLVESGGGLVQAGGSLRLSCAASGSTFLDYAMGWYRQAPGNERELVAAISPDDSSTYYADSVKARFTISRDKAKNTVSLHMTSLKPEDTAVYYFAADDRDWVNYDYWGQGTQVTVSS,low polyreactivity
3,QVQLVESGGGLVQAGGSLRLSCAASGSTFLDYDMGWYRQAPGKERELVATINSVGSTYYADSVKGRFTISRDNAKNTVYLQMKSLKPEDTAVYYCAASQEPGWYPDVWWEYDYWGQGTQVTVSS,low polyreactivity
4,QVQLVESGGGLVQAGGSLRLSCAASGSTFLGNAMGWYRQAPGKERELVAGITSGGTTNYADSVKGRFTISRDNAKNTVYLQMNSLKPEDTAVYYCNADVWIGQRFDPGYDFDYWGQGTQVTVSS,low polyreactivity
5,QVQLVESGGGLVQAGGSLRLSCAASGSTFLGYAMGWSRQAPGKERELVAAINLSTSGTYYADSVKGRFTISRDNAKNTVYLQMNSLKPEDTAVYYCAAAYSNINYYYQYYYWGQGTQVTVSS,low polyreactivity
6,QVQLVESGGGLVQAGGSLRLSCAASGSTFLHYAMGWYRQAPGKERELVAAISFSGVRTYYADSVKGRFTISRDNAKNTVYLQMNSLKPEDTAVYYCAADGHHADYDYWGQGTQVTVSS,low polyreactivity
7,QVQLVESGGGLVQAGGSLRLSCAASGSTFLHYAMGWYRQAPGKERELVATITSGDSTSYADSVKGRFTISRDNAKNTVYLQMNSLKPEDTAVYYCTANRVHRSASPYDYWGQGTQVTVSS,low polyreactivity
8,QVQLVESGGGLVQAGGSLRLSCAASGSTFLINAMGWYRQAPGKERELVAAISRDGSTNYADSVKGRFTISRDNAKNTVYLQMNSLKPEDTAVYYCAAVPGISVGRQPGYDYDYWGQGTQVTVSS,low polyreactivity
9,QVQLVESGGGLVQAGGSLRLSCAASGSTFLLNAMGWYRPAPGKERELVAAITWTGGSTYYADSVKGRFTISRDNAKNTVYLQMNILKPEDTAVYYCAAEHYEYWRELVTSEYDYWGKGTQVTVSS,low polyreactivity
10,QVQLVESGGGLVQAGGSLRLSCAASGSTFLNYAMGWYRQAPGKERELVAAISFSGGRTYYADSVKGRFTISRDNAKNTVFLQMNSLKPEDTAVYYCAARGSYAYYRGQGTQVTVSS,high polyreactivity
11,QVQLVESGGGLVQAGGSLRLSCAASGSTFLNYAMGWYRQAPGKERELVASISYSAGSTYYADSVKGRFTISRDNAKNTVYLQMNSLKPEDTAVYYCAARLARAGYWRRNYYYWGQGTQVTVSS,high polyreactivity
12,QVQLVESGGGLVQAGGSLRLSCAASGSTFLPNAMGWYRQAPGKERELVARISYSGGNTYYADSVKGRFTISRDNAKNTVYLQMNSLKPEDTAVYYCAAVGWYHDYYWGQGTQVTVSS,high polyreactivity
13,QVQLVESGGGLVQAGGSLRLSCAASGSTFLPNAMGWYRQPPGKERELVAAITNSGGNTYADSVKGRFTISRDNAKNTVYLQMNSLKPEDTAVYYCNARFSPTGWARGNDYWGQGTQVTVSS,low polyreactivity
14,QVQLVESGGGLVQAGGSLRLSCAASGSTFLPYALGWYRQAPGKERELVAAIDWNGGRTYYADSVKGRFTISRDNAKNTVYLQMNSLKPEDTAVYYCAKLGRAAQGNYYWGQGTQVTVSS,high polyreactivity
15,QVQLVESGGGLVQAGGSLRLSCAASGSTFLPYVMGWYRQATGKERELVAAISRSGGRTYYADSVKGRFTISRDKAKNTVYLQMNRLKPEDTAVYYCNAVQRFYADYQPFAYWGQGTQLTVSS,high polyreactivity
16,QVQLVESGGGLVQAGGSLRLSCAASGSTFLRNAMGWYREAPGKERELVAAISTRGGSTYYADSVKGRFTISRDNAKNTVNLQMNSLKPEDTADYYCAAVATRRYDYWGQGTQVTVSS,high polyreactivity
17,QVQLVESGGGLVQAGGSLRLSCAASGSTFLRNAMGWYRQAPGKERELVATISRTGGTTYYADSVKGRFTISRDNAKTTVYLQMNSLKPEDTAVYYCAAYSKYGQHYDYWGQGTQVTVSS,high polyreactivity
18,QVQLVESGGGLVQAGGSLRLSCAASGSTFLRNAMGWYRQAPGKQGSWVATISYDGDSTYYADSVTGRFTISRDNAKNTVYLQMNSLKPDDPAVYYCAASYSQTFWDKDDYWGQGTQVTVSS,low polyreactivity
19,QVQLVESGGGLVQAGGSLRLSCAASGSTFLRNVMGWYRQAPGKESELVAAISSRGGSTHYADSVKGRFTISRDNAKNSVYLQMNILKPEDTAVYYCNAERSAAQYVRAAYDYWGQGTQVTVSS,low polyreactivity
20,QVQLVESGGGLVQAGGSLRLSCAASGSTFLRYAMGWYRQAPGKERELVAAINLSGDRTYYADSVKGRFTISRDNAKNTDYVQMNSLKPEDTAVYYCAARWWGPSYDAYDYWVQGTQVTVSS,low polyreactivity
21,QVQLVESGGGLVQAGGSLRLSCAASGSTFLRYAMGWYRQAPGKERELVAAITASGGSTYYADSVKGRFTISRDNAKNTVYLEMNSLKPEDTAVYYCAADGRYIGKNSHDLWIYGYYYWGQGTQVTVSS,low polyreactivity
